{
  "source": "paper PMC12098869",
  "about": "“An mRNA-display derived cyclic peptide scaffold reveals the substrate binding interactions of an N-terminal cysteine oxidase” (Nature Communications, 2025)",
  "binders": {"B1": {"name": "RGS5(2-15), synthetic peptide corresponding to the methionine excised N-terminus of RGS5, residues 2 to 15 (peptide, UniProt O15539 2-15, looked up)", "peptide": "CKGLAALPHSCLER", "notes": "regulator of G-protein signalling 5 (RGS5), residues 2 to 15 (N-terminal Cys exposed); UniProt O15539 is printed for the full-length human protein; also called 14-mer RGS5; source: synthetic peptide"}},
  "assay_in_all_cases": "SPR; biotinylated ADO or ADO mutant immobilised on a Biotin CAP chip (~2500-3000 RU), substrate peptide injected; Biacore T200, 4 °C; 20 mM HEPES pH 7.5, 500 mM NaCl, 10 mM DTT, 0.1% tween-20; 50 µL/minute; multi-cycle or single-cycle mode not given; each cell is one of three independent measurements",
  "settings_in_all_cases": "both partners purified",
  "key": {"[1]": {"molecular_target": "T1, ADO-Y212A, N-terminally His-tagged and biotinylated (human, UniProt Q96SZ5 1-270, Y212A, biotin (biotinylated during expression))", "T1 construct": "2-aminoethanethiol dioxygenase (ADO), human, UniProt Q96SZ5, full length, site-directed mutant; source: E. coli Rosetta2(DE3), purified (Ni-NTA, SEC); not shown: biotinylation tag (from the vector pQE80L-Navi), N-terminal, kept", "T1 sequence (looked up)": "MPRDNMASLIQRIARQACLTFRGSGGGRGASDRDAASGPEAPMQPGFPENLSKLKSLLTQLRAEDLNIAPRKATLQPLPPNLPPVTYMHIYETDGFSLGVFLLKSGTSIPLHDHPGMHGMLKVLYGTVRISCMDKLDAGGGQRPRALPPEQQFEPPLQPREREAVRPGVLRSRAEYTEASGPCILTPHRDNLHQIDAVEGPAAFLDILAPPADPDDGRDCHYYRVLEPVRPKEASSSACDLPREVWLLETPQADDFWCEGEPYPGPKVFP"}, "[2]": {"molecular_target": "T2, ADO-Y212F, N-terminally His-tagged and biotinylated (human, UniProt Q96SZ5 1-270, Y212F, biotin (biotinylated during expression))", "T2 construct": "2-aminoethanethiol dioxygenase (ADO), human, UniProt Q96SZ5, full length, site-directed mutant; source: E. coli Rosetta2(DE3), purified (Ni-NTA, SEC); not shown: biotinylation tag (from the vector pQE80L-Navi), N-terminal, kept", "T2 sequence (looked up)": "T1 sequence (looked up) with A212F"}, "[3]": {"molecular_target": "T3, ADO-F256A, N-terminally His-tagged and biotinylated (human, UniProt Q96SZ5 1-270, F256A, biotin (biotinylated during expression))", "T3 construct": "2-aminoethanethiol dioxygenase (ADO), human, UniProt Q96SZ5, full length, site-directed mutant; source: E. coli Rosetta2(DE3), purified (Ni-NTA, SEC); not shown: biotinylation tag (from the vector pQE80L-Navi), N-terminal, kept", "T3 sequence (looked up)": "T1 sequence (looked up) with A212Y, F256A"}, "[4]": {"molecular_target": "T4, ADO-I109A, N-terminally His-tagged and biotinylated (human, UniProt Q96SZ5 1-270, I109A, biotin (biotinylated during expression))", "T4 construct": "2-aminoethanethiol dioxygenase (ADO), human, UniProt Q96SZ5, full length, site-directed mutant; source: E. coli Rosetta2(DE3), purified (Ni-NTA, SEC); not shown: biotinylation tag (from the vector pQE80L-Navi), N-terminal, kept", "T4 sequence (looked up)": "T1 sequence (looked up) with I109A, A212Y"}, "[5]": {"molecular_target": "T5, ADO-Y222A, N-terminally His-tagged and biotinylated (human, UniProt Q96SZ5 1-270, Y222A, biotin (biotinylated during expression))", "T5 construct": "2-aminoethanethiol dioxygenase (ADO), human, UniProt Q96SZ5, full length, site-directed mutant; source: E. coli Rosetta2(DE3), purified (Ni-NTA, SEC); not shown: biotinylation tag (from the vector pQE80L-Navi), N-terminal, kept", "T5 sequence (looked up)": "T1 sequence (looked up) with A212Y, Y222A"}},
  "note": "Changes are numbered by the printed parent chain. Where “and” joins values, the source holds several entries; their conditions need not be identical. Equal values may be shown once.",
  "data": [
    {"binder": "B1", "values": [
      {"measurement": "Kd", "setting": "[1]", "result": "66.5 µM and 90.3 µM and 63.1 µM"},
      {"measurement": "Kd", "setting": "[2]", "result": "19.9 µM and 24.5 µM and 29.2 µM"},
      {"measurement": "Kd", "setting": "[3]", "result": "0.717 µM and 0.753 µM and 0.714 µM"},
      {"measurement": "Kd", "setting": "[4]", "result": "1.12 µM and 1.24 µM and 1.43 µM"},
      {"measurement": "Kd", "setting": "[5]", "result": "4.42 µM and 4.8 µM and 4.78 µM"}
    ]}
  ]
}
